How the values were obtained:
Syntide-2 = target: T1, Syntide-2
T1 sequence (peptide): PLARTLSVAGLPGKK

RR-SRC peptide = target: T2, RR-SRC peptide
T2 sequence (peptide): RRLIEDAEYAARG

TEY peptide = target: T3, TEY peptide
T3 sequence (peptide): PEHDHTGFLTEYVATRWYR

[1] = target: bovine myelin basic protein (bovine) (UniProt P02687)
ETE peptide = target: T4, ETE peptide
T4 sequence (peptide): RRREEETEEE

S6 peptide = target: T5, S6 peptide
T5 sequence (peptide): RRLSSLRA

Band-3 peptide = target: T6, Band-3 peptide
T6 sequence (peptide): MEELQDDYEDDMEERR

[2] = target: Recombinant ERK2 expressed in E. coli (Rattus norvegicus (Rat)) (UniProt P63086)

Chain of bovine myelin basic protein (bovine) (P02687 whole entry): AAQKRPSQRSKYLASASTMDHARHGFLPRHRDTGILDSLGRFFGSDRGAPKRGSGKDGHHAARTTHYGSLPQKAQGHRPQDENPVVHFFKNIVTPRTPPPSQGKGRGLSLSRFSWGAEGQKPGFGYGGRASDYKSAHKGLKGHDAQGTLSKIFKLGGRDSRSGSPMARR

- Phosphorylation (Syntide-2): < 0.005 nmol/min/mg
- Phosphorylation (Ribosomal S6 protein): < 0.005 nmol/min/mg
- Phosphorylation (RR-SRC peptide): < 0.005 nmol/min/mg
- Phosphorylation (TEY peptide): 0.04 nmol/min/mg
- Phosphorylation [1]: 0.1 nmol/min/mg
- Phosphorylation (Histones): 0.02 nmol/min/mg
- Phosphorylation (Kemptide): < 0.005 nmol/min/mg
- Phosphorylation (ETE peptide): < 0.005 nmol/min/mg
- Phosphorylation (S6 peptide): < 0.005 nmol/min/mg
- Phosphorylation (Band-3 peptide): < 0.005 nmol/min/mg
- Phosphorylation [2]: 150 nmol/min/mg
- Phosphorylation (Denatured enolase): < 0.005 nmol/min/mg
- Phosphorylation (Casein): < 0.005 nmol/min/mg
Substance: MAPK activator 1 (MAPKK1a), 46 kDa polypeptide purified from EGF-stimulated A431 cells (enzyme)

Reference: patent US5663314
